Substitutions are numbered along the chain they refer to.
Key:
[1] = tested on: T1, TQWAQVGPRG RRAQG KLTCLASYCWLFWTGIA
T1 sequence: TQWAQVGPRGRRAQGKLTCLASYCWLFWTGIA

[2] = tested on: T2, RRAPGKLTCK(PEG2-Biotin)ASYCWLFWTGIA
T2 sequence: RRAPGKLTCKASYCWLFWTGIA

[3] = tested on: T3, AQWVGRGQWA IRAPG KLTCLASYCWLFWTGIA
T3 sequence: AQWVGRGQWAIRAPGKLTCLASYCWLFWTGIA

[4] = tested on: T4, RRAPGKLTCLK(PEG2-Biotin)SYCWLFWTGIA
T4 sequence: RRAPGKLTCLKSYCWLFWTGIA

KLTCKASYCWLF = tested on: T5, KLTCKASYCWLF
T5 sequence: KLTCKASYCWLF

[5] = tested on: T6, VGSGDERALP SRASG KLTCLASYCWLFWTGIA
T6 sequence: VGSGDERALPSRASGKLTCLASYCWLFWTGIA

KLTCLASYCQLV = tested on: T7, KLTCLASYCQLV
T7 sequence: KLTCLASYCQLV

KLT-Lys-LASY-Glu-WLF = tested on: T8, KLT-Lys-LASY-Glu-WLF
T8 sequence: KLTKLASYEWLF

KLTCLKSYCWLF = tested on: T9, KLTCLKSYCWLF
T9 sequence: KLTCLKSYCWLF

[6] = tested on: T10, RRAPGKLT-Asp-LASY-Dab-WLFWTGIA-CONH2
T10 sequence: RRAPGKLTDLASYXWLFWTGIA

RRAPGKLQCLASYCWLFWTGAA = tested on: T11, RRAPGKLQCLASYCWLFWTGAA
T11 sequence: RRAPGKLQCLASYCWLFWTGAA

RRAPGKLTCLASyCWLFWTGIA [7] = tested on: T12, RRAPGKLTCLASyCWLFWTGIA
T12 sequence: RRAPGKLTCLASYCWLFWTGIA

[8] = tested on: T13, AVVRGQEPTH RRTPG KLTCLASYCWLFWTGIA
T13 sequence: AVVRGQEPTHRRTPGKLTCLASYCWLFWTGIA

[9] = tested on: T14, SRIRTVSPGSRSASGKSTCLASYCWLFWTGIA
T14 sequence: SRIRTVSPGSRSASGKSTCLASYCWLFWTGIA

compound 1 = tested on: T15, compound 1
T15 sequence: KLTCLASYCWLF

[10] = tested on: T16, RRAPGKLTCLASYACLFWTGIA-CONH2
T16 sequence: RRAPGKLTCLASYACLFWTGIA

[11] = tested on: T17, RRAPGKLT-Dab-LASY-Asp-WLFWTGIA-CONH2
T17 sequence: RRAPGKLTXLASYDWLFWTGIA

[12] = tested on: T18, RRAPGK-MeLeu-TCLASYCWLFWTGIA
T18 sequence: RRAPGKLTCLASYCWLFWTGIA

k-MeLeu-TCLASYCWLA = tested on: T19, k-MeLeu-TCLASYCWLA
T19 sequence: KLTCLASYCWLA

[13] = tested on: T20, CGGSGGRRAPGKLQCLASYCWLFWTGIAC
T20 sequence: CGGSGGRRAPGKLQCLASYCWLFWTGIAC

[14] = tested on: T21, RRAPGKLT-Lys-LASY-Glu-WLFWTGIA-CONH2
T21 sequence: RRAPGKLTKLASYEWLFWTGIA

[15] = tested on: T22, RRAPGKLTCLASYCWK(PEG2-Biotin)FWTGIA
T22 sequence: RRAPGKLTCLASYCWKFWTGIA

[16] = tested on: T23, SKQGRPISSDrRASGKLTCLASYCWLFWTGIA
T23 sequence: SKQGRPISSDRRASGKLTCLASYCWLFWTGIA

[17] = tested on: T24, SKQGRPIAPDrRAAGKLTCLASYCWLFWTGIA
T24 sequence: T23 sequence with S8A, S9P, S14A

[18] = tested on: T25, RRAPGKLTCLASYCWLF EPGIA QPYAKSPTRN
T25 sequence: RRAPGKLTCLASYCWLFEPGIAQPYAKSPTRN

compound 19 = tested on: T26, compound 19
T26 sequence: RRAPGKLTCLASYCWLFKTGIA

[19] = tested on: T27, TGLLQGRRDE RARPP KLTCLASYCWLFWTGIA
T27 sequence: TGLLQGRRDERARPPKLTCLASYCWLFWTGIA

[20] = tested on: T28, RRAPGKLTCLASYCWLF WTGLA STLYKTYTRE
T28 sequence: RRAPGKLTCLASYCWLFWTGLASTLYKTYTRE

[21] = tested on: T29, SKQGRPISPDRRAAGKLT-Asp-LASY-Orn-WLFWTGIA
T29 sequence: T23 sequence with S9P, S14A, C19D, C24X

[22] = tested on: T30, KLTCLASYCWLF-(PEG)4-CONH2
T30 sequence: KLTCLASYCWLF

WVPQWKVTCLASCSRLFHGFDA = tested on: T31, WVPQWKVTCLASCSRLFHGFDA
T31 sequence: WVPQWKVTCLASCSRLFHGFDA

[23] = tested on: T32, RRAPGKLCALASYCWLFWTGIA-COOH
T32 sequence: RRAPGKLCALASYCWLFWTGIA

[24] = tested on: T33, RRAPGKLTCLAS-MeTyr-CWLFWTGIA
T33 sequence: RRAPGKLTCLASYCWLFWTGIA

[25] = tested on: T34, KLLKLLLKLLLKLLK-k-MeLeu-TCLASYCWLF
T34 sequence: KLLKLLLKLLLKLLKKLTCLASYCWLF

[26] = tested on: T35, PRTTANRRSS RRAPA KLTCLASYCWLFWTGIA
T35 sequence: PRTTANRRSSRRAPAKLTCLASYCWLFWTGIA

KLT-Glu-LASY-Dab-WLF = tested on: T36, KLT-Glu-LASY-Dab-WLF
T36 sequence: KLTELASYXWLF

[27] = tested on: T37, LQLSYGEQRQ SRAPG KLTCLASYCWLFWTGIA
T37 sequence: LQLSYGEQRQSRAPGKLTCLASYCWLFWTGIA

AQLRRKLTCLASYCWLFGFFSP = tested on: T38, AQLRRKLTCLASYCWLFGFFSP
T38 sequence: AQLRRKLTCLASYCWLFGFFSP

KLTCLSSYCWLF = tested on: T39, KLTCLSSYCWLF
T39 sequence: KLTCLSSYCWLF

[28] = tested on: T40, RRAPGKLTCLASYCWLF WTGLS RYQWQAQEDV
T40 sequence: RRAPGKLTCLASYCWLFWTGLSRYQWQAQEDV

RRAPGKLTCLAsYCWLFWTGIA [29] = tested on: T41, RRAPGKLTCLAsYCWLFWTGIA
T41 sequence: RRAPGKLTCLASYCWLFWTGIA

RRAPGKLTCLASYCWLFWTGIa [30] = tested on: T42, RRAPGKLTCLASYCWLFWTGIa
T42 sequence: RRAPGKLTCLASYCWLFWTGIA

[31] = tested on: T43, GSVRRALFVA ARAPA KLTCLASYCWLFWTGIA
T43 sequence: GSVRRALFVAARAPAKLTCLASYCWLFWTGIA

[32] = tested on: T44, rRAPGKLTCLASYCWLFWTGIA-PEG16-Lys(PEG2-Biotin)-PEG16-CNPRGD-Tyr(OEt)-RC
T44 sequence: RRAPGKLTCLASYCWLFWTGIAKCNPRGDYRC

RRAPAKLQCLASYCWLFWTGIA = tested on: T45, RRAPAKLQCLASYCWLFWTGIA
T45 sequence: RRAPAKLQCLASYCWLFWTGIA

[33] = tested on: T46, SRIRTVGPGSRSASGKLTCLASYCWLFWTGIA
T46 sequence: T14 sequence with S7G, S17L

Substance: human Factor IXa
- Vmax, FXa generation assay [1]: > 3
- Vmax, FXa generation assay; (++) means 1-2 [2]: (++)
- Vmax, FXa generation assay [3]: > 2
- Vmax, FXa generation assay; (++) means 1-2 [4]: (++)
- Vmax, FXa generation assay (KLTCKASYCWLF): > 3
- Vmax, FXa generation assay [5]: > 2
- Vmax, FXa generation assay (KLTCLASYCQLV): > 2
- Vmax, FXa generation assay; (++) means 1-2 (KLT-Lys-LASY-Glu-WLF): (++)
- Vmax, FXa generation assay; (++) means 1-2 (KLTCLKSYCWLF): (++)
- Vmax, FXa generation assay; (++) means 1-2 [6]: (++)
- Vmax, FXa generation assay (RRAPGKLQCLASYCWLFWTGAA): > 3
- Vmax, FXa generation assay (RRAPGKLTCLASyCWLFWTGIA [7]): > 2
- Vmax, FXa generation assay [8]: > 3
- Vmax, FXa generation assay [9]: > 3
- (kcat/KM)app (M^-1s^-1) of FIXa on the chromogenic substrate, compound 1 at 10 µM (compound 1): 1360 M⁻¹ s⁻¹
- Vmax (mOD/min min), with phospholipids (compound 1): 3.98 mOD/min min
- Vmax (mOD/min min), without phospholipids (compound 1): 2.6 mOD/min min
- Vmax, FXa generation assay with hFIXa (compound 1): > 2
- kcat (min^-1) of hFIXa for FX, compound at 3 µM (compound 1): 0.0144 min⁻¹
- Δ KM (Km compound/Km buffer) (compound 1): 0.31
- Vmax, FXa generation assay [10]: > 3
- Vmax, FXa generation assay [11]: > 2
- Vmax, FXa generation assay; (++) means 1-2 [12]: (++)
- Vmax, FXa generation assay (k-MeLeu-TCLASYCWLA): > 2
- Vmax, FXa generation assay; (++) means 1-2 [13]: (++)
- Vmax, FXa generation assay; (++) means 1-2 [14]: (++)
- Vmax, FXa generation assay [15]: > 3
- Vmax, FXa generation assay [16]: > 3
- Vmax, FXa generation assay [17]: > 3
- Vmax, FXa generation assay [18]: > 2
- Vmax, FXa generation assay with hFIXa (compound 19): > 2
- Vmax, FXa generation assay [19]: > 3
- Vmax, FXa generation assay; (++) means 1-2 [20]: (++)
- Vmax, FXa generation assay [21]: > 3
- Vmax, FXa generation assay; (++) means 1-2 [22]: (++)
- Vmax, FXa generation assay (WVPQWKVTCLASCSRLFHGFDA): > 1.5
- Vmax, FXa generation assay [23]: > 2
- Vmax, FXa generation assay; (++) means 1-2 [24]: (++)
- Vmax, FXa generation assay [25]: > 2
- Vmax, FXa generation assay [26]: > 3
- Vmax, FXa generation assay; (++) means 1-2 (KLT-Glu-LASY-Dab-WLF): (++)
- Vmax, FXa generation assay; (++) means 1-2 [27]: (++)
- Vmax, FXa generation assay; (++) means 1-2 (AQLRRKLTCLASYCWLFGFFSP): (++)
- Vmax, FXa generation assay (KLTCLSSYCWLF): > 2
- Vmax, FXa generation assay [28]: > 2
- Vmax, FXa generation assay; (++) means 1-2 (RRAPGKLTCLAsYCWLFWTGIA [29]): (++)
- Vmax, FXa generation assay; (++) means 1-2 (RRAPGKLTCLASYCWLFWTGIa [30]): (++)
- Vmax, FXa generation assay [31]: > 2
- Vmax, FXa generation assay [32]: > 3
- Vmax, FXa generation assay (RRAPAKLQCLASYCWLFWTGIA): > 2
- Vmax, FXa generation assay [33]: > 3
